One assay addresses T1, HLA-A*0201 molecule on human T2 cells (human).
T1 construct: read out with anti-HLA-A2 antibody BB7.2-PE; also called HLA-A2
The experiment in a line: T2 cells expressing HLA-A*0201, anti-HLA-A2-PE, FACS.
As for LLLSAALSA (Fragment of human CHI3L1) [CHI3L1H], the “mean relative fluorescence intensity at 1.5625 µM peptide” value is -1.9 % of HIV peptide, the “mean relative fluorescence intensity at 3.125 µM peptide” value was 1 % of HIV peptide, the “mean relative fluorescence intensity at 6.25 µM peptide” value is 4.4 % of HIV peptide and the “mean relative fluorescence intensity at 25 µM peptide” value is 4.9 % of HIV peptide. Further, the “mean relative fluorescence intensity at 50 µM peptide” value is 14.5 % of HIV peptide and the “mean relative fluorescence intensity at 100 µM peptide” value is 11.2 % of HIV peptide.
As for VLEELLWFI (Fragment of human TYMS) [TYMS-H], the “mean relative fluorescence intensity at 1.5625 µM peptide” value was 8.6 % of HIV peptide, the “mean relative fluorescence intensity at 3.125 µM peptide” value is 15.3 % of HIV peptide, the “mean relative fluorescence intensity at 6.25 µM peptide” value is 26.6 % of HIV peptide and the “mean relative fluorescence intensity at 25 µM peptide” value is 38.1 % of HIV peptide. Besides, the “mean relative fluorescence intensity at 50 µM peptide” value was 40.4 % of HIV peptide and the “mean relative fluorescence intensity at 100 µM peptide” value was 50.2 % of HIV peptide.
For RLSSYLVEI [FOXM1-B], the “mean relative fluorescence intensity at 1.5625 µM peptide” value was 0 % of HIV peptide, the “mean relative fluorescence intensity at 3.125 µM peptide” value is 0 % of HIV peptide, the “mean relative fluorescence intensity at 6.25 µM peptide” value was 0 % of HIV peptide and the “mean relative fluorescence intensity at 25 µM peptide” value is 7.6 % of HIV peptide. The “mean relative fluorescence intensity at 50 µM peptide” value is 21.3 % of HIV peptide and the “mean relative fluorescence intensity at 100 µM peptide” value is 47.5 % of HIV peptide.
Turning to WLPFGFILI (Fragment of human IL13RA2) [IL13RA2-H], the “mean relative fluorescence intensity at 1.5625 µM peptide” value is 3 % of HIV peptide, the “mean relative fluorescence intensity at 3.125 µM peptide” value was 3.7 % of HIV peptide, the “mean relative fluorescence intensity at 6.25 µM peptide” value is 9.6 % of HIV peptide and the “mean relative fluorescence intensity at 25 µM peptide” value is 11.2 % of HIV peptide. Moreover, the “mean relative fluorescence intensity at 50 µM peptide” value was 14.2 % of HIV peptide and the “mean relative fluorescence intensity at 100 µM peptide” value was 26.5 % of HIV peptide.
Turning to FLDSLGFST [TYMS-H2], the “mean relative fluorescence intensity at 1.5625 µM peptide” value is 1.6 % of HIV peptide, the “mean relative fluorescence intensity at 3.125 µM peptide” value was 4.5 % of HIV peptide, the “mean relative fluorescence intensity at 6.25 µM peptide” value was 6.1 % of HIV peptide and the “mean relative fluorescence intensity at 25 µM peptide” value is 32.5 % of HIV peptide. Also, the “mean relative fluorescence intensity at 50 µM peptide” value is 37.2 % of HIV peptide and the “mean relative fluorescence intensity at 100 µM peptide” value was 50.6 % of HIV peptide.
Consider FLDSLGFSL [TYMS-B2], for which the “mean relative fluorescence intensity at 1.5625 µM peptide” value is 10.7 % of HIV peptide, the “mean relative fluorescence intensity at 3.125 µM peptide” value is 21.5 % of HIV peptide, the “mean relative fluorescence intensity at 6.25 µM peptide” value was 27.5 % of HIV peptide and the “mean relative fluorescence intensity at 25 µM peptide” value was 61.1 % of HIV peptide. Besides, the “mean relative fluorescence intensity at 50 µM peptide” value was 62 % of HIV peptide and the “mean relative fluorescence intensity at 100 µM peptide” value is 71.3 % of HIV peptide.
Take SMFRVLIGT (Fragment of human EZH2) [EZH2-H2]: the “mean relative fluorescence intensity at 1.5625 µM peptide” value was 0 % of HIV peptide, the “mean relative fluorescence intensity at 3.125 µM peptide” value is 0 % of HIV peptide, the “mean relative fluorescence intensity at 6.25 µM peptide” value is 0 % of HIV peptide and the “mean relative fluorescence intensity at 25 µM peptide” value was 13.3 % of HIV peptide. In addition, the “mean relative fluorescence intensity at 100 µM peptide” value is 78.2 % of HIV peptide.
As for LMDLSTTEV [FOXM1-B2], the “mean relative fluorescence intensity at 1.5625 µM peptide” value was 7.2 % of HIV peptide, the “mean relative fluorescence intensity at 3.125 µM peptide” value was 12.7 % of HIV peptide, the “mean relative fluorescence intensity at 6.25 µM peptide” value was 33.5 % of HIV peptide and the “mean relative fluorescence intensity at 25 µM peptide” value is 98.2 % of HIV peptide. Moreover, the “mean relative fluorescence intensity at 50 µM peptide” value was 91.5 % of HIV peptide and the “mean relative fluorescence intensity at 100 µM peptide” value is 105 % of HIV peptide.
Turning to SMEELLWFV [TYMS-B], the “mean relative fluorescence intensity at 1.5625 µM peptide” value is 15.9 % of HIV peptide, the “mean relative fluorescence intensity at 3.125 µM peptide” value is 30.4 % of HIV peptide, the “mean relative fluorescence intensity at 6.25 µM peptide” value is 36 % of HIV peptide and the “mean relative fluorescence intensity at 25 µM peptide” value is 49.3 % of HIV peptide. In addition, the “mean relative fluorescence intensity at 50 µM peptide” value is 65.7 % of HIV peptide and the “mean relative fluorescence intensity at 100 µM peptide” value was 80.9 % of HIV peptide.
As to AVFRVLIPV [EZH2-B2], the “mean relative fluorescence intensity at 1.5625 µM peptide” value is 0 % of HIV peptide, the “mean relative fluorescence intensity at 3.125 µM peptide” value was 0 % of HIV peptide, the “mean relative fluorescence intensity at 6.25 µM peptide” value is 0.5 % of HIV peptide and the “mean relative fluorescence intensity at 25 µM peptide” value is 74.8 % of HIV peptide. Also, the “mean relative fluorescence intensity at 100 µM peptide” value was 112 % of HIV peptide.
Regarding YTLGEFLYI [BIRC5-B2], the “mean relative fluorescence intensity at 3.125 µM peptide” value was 6.6 % of HIV peptide, the “mean relative fluorescence intensity at 6.25 µM peptide” value was 9 % of HIV peptide, the “mean relative fluorescence intensity at 25 µM peptide” value is 29.6 % of HIV peptide and the “mean relative fluorescence intensity at 50 µM peptide” value is 54.4 % of HIV peptide. The “mean relative fluorescence intensity at 100 µM peptide” value is 58 % of HIV peptide.
For RVSSYLVPI (Fragment of human FOXM1) [FOXM1-H], the “mean relative fluorescence intensity at 1.5625 µM peptide” value is 0 % of HIV peptide, the “mean relative fluorescence intensity at 3.125 µM peptide” value was 0 % of HIV peptide, the “mean relative fluorescence intensity at 6.25 µM peptide” value is 0 % of HIV peptide and the “mean relative fluorescence intensity at 25 µM peptide” value was 10.5 % of HIV peptide. Further, the “mean relative fluorescence intensity at 50 µM peptide” value is 30.7 % of HIV peptide and the “mean relative fluorescence intensity at 100 µM peptide” value is 83.8 % of HIV peptide.
On to LMDLSTTPL (Fragment of human FOXM1) [FOXM1-H2], for which the “mean relative fluorescence intensity at 1.5625 µM peptide” value was 5.3 % of HIV peptide, the “mean relative fluorescence intensity at 3.125 µM peptide” value is 0.9 % of HIV peptide, the “mean relative fluorescence intensity at 6.25 µM peptide” value is 19.7 % of HIV peptide and the “mean relative fluorescence intensity at 25 µM peptide” value is 65.4 % of HIV peptide. Also, the “mean relative fluorescence intensity at 50 µM peptide” value is 62.5 % of HIV peptide and the “mean relative fluorescence intensity at 100 µM peptide” value is 77.6 % of HIV peptide.

A further assay addresses T1, HLA-A*0201 molecule on human T2 cells. The assay is described as above. The source holds these as a separate data set.
Regarding VLEELLWFI (Fragment of human TYMS) [TYMS-H], the “Concentration of peptide that induces 20% of HLA-A2 expression” value is 4.1 µM and the “In vitro binding affinity (relative to reference peptide HIV pol 589-597)” value is 0.3.
In the case of RLSSYLVEI [FOXM1-B], the “Concentration of peptide that induces 20% of HLA-A2 expression” value turned out to be 46.7 µM and the “In vitro binding affinity (relative to reference peptide HIV pol 589-597)” value was found to be 4.6.
The like results for FLDSLGFST [TYMS-H2] were, in that order, 9.5 µM and 0.8.
The matching figures for FLDSLGFSL [TYMS-B2]: 2.7 µM and 0.2.
SMFRVLIGT (Fragment of human EZH2) [EZH2-H2]: the “Concentration of peptide that induces 20% of HLA-A2 expression” value came out at 39.2 µM and the “In vitro binding affinity (relative to reference peptide HIV pol 589-597)” value came to 7.8.
LMDLSTTEV [FOXM1-B2]: the “Concentration of peptide that induces 20% of HLA-A2 expression” value came to 6.7 µM and the “In vitro binding affinity (relative to reference peptide HIV pol 589-597)” value worked out at 1.3.
The matching figures for SMEELLWFV [TYMS-B]: 1.1 µM and 0.1.
With AVFRVLIPV [EZH2-B2], the “Concentration of peptide that induces 20% of HLA-A2 expression” value turned out to be 8.3 µM and the “In vitro binding affinity (relative to reference peptide HIV pol 589-597)” value was 1.7.
Regarding YTLGEFLYI [BIRC5-B2], the “Concentration of peptide that induces 20% of HLA-A2 expression” value was 14.7 µM and the “In vitro binding affinity (relative to reference peptide HIV pol 589-597)” value stood at 4.5.
As for RVSSYLVPI (Fragment of human FOXM1) [FOXM1-H], the “Concentration of peptide that induces 20% of HLA-A2 expression” value stood at 37.6 µM and the “In vitro binding affinity (relative to reference peptide HIV pol 589-597)” value came to 3.7.
For the molecule LMDLSTTPL (Fragment of human FOXM1) [FOXM1-H2], the “Concentration of peptide that induces 20% of HLA-A2 expression” value is 12.6 µM and the “In vitro binding affinity (relative to reference peptide HIV pol 589-597)” value came out at 2.5.

The record behind these values is US20210113678A1 (ENTEROME S A, published 2021).
